These results are taken from paper PMC3621763, “Adenoviral Gene Transfer of PLD1-D4 Enhances Insulin Sensitivity in Mice by Disrupting Phospholipase D1 Interaction with PED/PEA-15” (PLoS ONE, 2013).

The assay addresses T1, PED/PEA-15 over-expressed in transgenic Tg_(Ped/pea-15) mice (UniProt Q15121 1-130).
T1 construct: PED/PEA-15 expressed from the transgene of Tg_(Ped/pea-15) mice; The precipitate from transgenic muscle holds the transgene's product together with the endogenous mouse protein; source: transgenic mice with ubiquitous over-expression of Ped/pea-15, tibialis skeletal muscle lysate
Nature of the assay: co-IP; tibialis skeletal muscle lysate (0.5-1 mg) of Wt and Tg_(Ped/pea-15) mice, precleared with pre-immune serum, anti-PED/PEA-15 antibody overnight at 4°C, protein A sepharose, blot with anti-PLD1. The following applies: partners not purified.

T1 sequence (Q15121 whole entry): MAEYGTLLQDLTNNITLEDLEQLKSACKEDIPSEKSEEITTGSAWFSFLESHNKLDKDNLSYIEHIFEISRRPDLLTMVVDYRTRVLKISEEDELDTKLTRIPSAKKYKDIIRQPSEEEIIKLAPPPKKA

B1: Phospholipase D1 (PLD1), endogenous in mouse skeletal muscle (enzyme, UniProt Q9Z280 1-1074, looked up)
chain: MSLKSETRVNTSTLQKIAADMSNLIENLDTRELHFEGEEVEYDASPGDPKAQEGCIPFSSIYNTQGFKEPNIQTYLSGCPIKAQVLEVERFTSTSRVPSINLYTIELTHGEFTWQVKRKFKHFQEFHRELLKYKAFIRIPIPTKRHTFRRQNVKEEPREMPSLPRSSENAIQEEQFFGRRKQLEDYLTKILKMPMYRNYHATTEFLDVSQLSFIHDLGPKGLEGMIMKRSGGHRIPGVNCCGHGRACYRWSKRWLIVKDSFLLYMKPDSGAIAFVLLVDKEFRVKVGRKETETKYGLRIDNLSRTLILKCNSYRHARWWGGAIEEFIRKHGADFLKDHRFGSYAALHENTLAKWYVNAKGYFEDIANAMEEASEEIFITDWWLSPEIFLKRPVVEGNRWRLDCILKRKAQQGVRIFIMLYKEVELALGINSEYSKRTLMRLHPNIKVMRHPDHVSSSVYLWAHHEKLVIIDQSVAFVGGIDLAYGRWDDNEHRLTDVGSVKRVTSGLSLGSLTAASVESMESLSLKDKHEFHKKEPISKIVDETDMKLKGIGKSRKFSKFSLYRQLHRHHLHNADSISSIDSTSSYFSHCRSHQNLIHGLKPHLKLFHPSSESEQGLTRHSTDTGSIRSVQTGVGELHGETRFWHGKDYCNFVFKDWVQLDKPFADFIDRYSTPRMPWHDIGSVVHGKAARDVARHFIQRWNFTKIMKPKYRSLSYPFLLPKSQATAHELRYQVPGAVPAKVQLLRSAADWSAGIKHHEESIHAAYIHVIENSKHYIYIENQFFISCADDKVVFNKVGDRIAQRILKAHREGQRYRVYIVIPLLPGFEGDISTGGGNALQAIMHFNYRTMCRGESSILEQLKPELGNKWINYISFCGLRTHAELEGNLVTELIYVHSKLLIADDNTVIIGSANINDRSMLGKRDSEMAVIVQDTETVPSVMDGKEYQAGRFARDLRLECFRLVLGYLSDPSEDLQDPVSDKFFKEIWVSTAARNATIYDKVFRCLPNDEVHNLIQLRDFINKPILAKEDALRAEEELRKIRGFLVQFPLYFLSEENLLPSVGTKEAIVPMEVWT
notes: Phospholipase D1, endogenous protein of mouse skeletal muscle; Detected by blot with an anti-PLD1 antibody in the anti-PED/PEA-15 precipitate; source: endogenous, tibialis skeletal muscle lysate of Wt and Tg_(Ped/pea-15) mice
For B1, the “fold increase of the co-precipitated interaction against Wt mice” value was found to be 4 fold.
